Measured values taken from PMC4774423 (Frontiers in Immunology, 2016).
One block for each binder: values may come before it.

B1: recombinant human receptor for the globular heads of C1q (gC1qR) (receptor, UniProt Q07021 74-282, looked up)
chain: LHTDGDKAFVDFLSDEIKEERKIQKHKTLPKMSGGWELELNGTEAKLVRKVAGEKITVTFNINNSIPPTFDGEEEPSQGQKVEEQEPELTSTPNFVVEVIKNDDGKKALVLDCHYPEDEVGQEDEAESDIFSIREVSFQSTGESEWKDTNYTLNTDSLDWALYDHLMDFLADRGVDNTFADELVELSTALEHQEYITFLEDLKSFVKSQ
notes: the mature protein is recalled to begin at residue 74 of the precursor; also called receptor for C1q globular heads
B2: gC1qA module of C1q-scGR (residues 88-223 of mature C1qA) (domain or fragment, human, UniProt P02745 110-245, looked up)
chain: KDQPRPAFSAIRRNPPMGGNVVIFDTVITNQEEPYQNHSGRFVCTVPGYYYFTFQVLSQWEICLSIVSSSRGQVRRSLGFCDTTNKGLFQVVSGGMVLQLQQGDQVWVEKDPKKGHIYQGSEADSVFSGFLIFPSA
modifications: N-glycan at Asn 124
notes: globular domain of human C1q chain A; numbers count on: the mature protein; In the crystal it is joined on one chain with gC1qC (Gly-Ser-Gly linker) and gC1qB: see m1; also called subunit A; source: 293-F cells, as part of the single chain C1q-scGR, purified
B4: recombinant human calreticulin (natural protein, UniProt P27797 18-417, looked up)
chain: EPAVYFKEQFLDGDGWTSRWIESKHKSDFGKFVLSSGKFYGDEEKDKGLQTSQDARFYALSASFEPFSNKGQTLVVQFTVKHEQNIDCGGGYVKLFPNSLDQTDMHGDSEYNIMFGPDICGPGTKKVHVIFNYKGKNVLINKDIRCKDDEFTHLYTLIVRPDNTYEVKIDNSQVESGSLEDDWDFLPPKKIKDPDASKPEDWDERAKIDDPTDSKPEDWDKPEHIPDPDAKKPEDWDEEMDGEWEPPVIQNPEYKGEWKPRQIDNPDYKGTWIHPEIDNPEYSPDPSIYAYDNFGVLGLDLWQVKSGTIFDNFLITNDEAYAEEFGNETWGVTKAAEKQMKDKQDEEQRLKEEEEDKKRKEEEEAEDKEDDEDKDEDEEDEEDKEEDEEEDVPGQAKDEL
notes: human calreticulin, recombinant; also called CRT

Assays:
Settings in all cases: both partners purified
[1] = target: T1, C1q purified from human serum (full-length C1q) (human, UniProt P02745 23-245; P02746 28-253; P02747 29-245); assay: SPR; Biacore 3000, 25°C; CRT, gC1qR and PTX3 amine-coupled on CM5; C1q samples flowed at 20 μl/min in 50 mM Tris-HCl, 150 mM NaCl, 2 mM CaCl2, 0.005% P20, pH 7.4; global fit 1:1 Langmuir (two-state model for C1q-CRT); apparent KD
T1 construct: also called intact C1q; native C1q; source: purified from human serum; copies: 6 + 6 + 6

[2] = target: T2, globular regions of C1q prepared by collagenase digestion of serum-derived C1q (C1q-GR) (human, UniProt P02745 112-245; P02746 118-253; P02747 115-245); assay: as above
T2 construct: globular region of human C1q chain A left after collagenase digestion; globular region of human C1q chain B left after collagenase digestion; globular region of human C1q chain C left after collagenase digestion; Heterotrimer of the three globular modules; Mw 48,000 used for concentration; also called serum-derived C1q-GR; plasma-derived C1q-GR; source: collagenase digestion of C1q purified from …

[3] = target: T3, gC1qB module of C1q-scGR (residues 90-226 of mature C1qB) (human, UniProt P02746 117-253); assay: crystal structure; C1q-scGR crystallised with and without calcium in the reservoir; 1.35 and 1.55 Å
T3 construct: globular domain of human C1q chain B; numbers count on: the mature protein; In the crystal it is joined on one chain after gC1qC (Gly-Ser-Ala linker): see m1; also called subunit B; source: 293-F cells, as part of the single chain C1q-scGR, purified

[4] = target: B1; assay: SPR; Biacore 3000, 25°C; CRT, gC1qR and PTX3 amine-coupled on CM5; C1q samples flowed at 20 μl/min in 50 mM Tris-HCl, 150 mM NaCl, 2 mM CaCl2, 0.005% P20, pH 7.4; global fit 1:1 Langmuir (two-state model for C1q-CRT); apparent KD
[5] = target: B4; assay: as above
[6] = target: T4, recombinant human long pentraxin PTX3 (human, UniProt P26022 18-381); assay: as above
T4 construct: human pentraxin 3, recombinant

[7] = target: B2; assay: crystal structure; C1q-scGR crystallised with and without calcium in the reservoir; 1.35 and 1.55 Å

T4 sequence (P26022 18-381): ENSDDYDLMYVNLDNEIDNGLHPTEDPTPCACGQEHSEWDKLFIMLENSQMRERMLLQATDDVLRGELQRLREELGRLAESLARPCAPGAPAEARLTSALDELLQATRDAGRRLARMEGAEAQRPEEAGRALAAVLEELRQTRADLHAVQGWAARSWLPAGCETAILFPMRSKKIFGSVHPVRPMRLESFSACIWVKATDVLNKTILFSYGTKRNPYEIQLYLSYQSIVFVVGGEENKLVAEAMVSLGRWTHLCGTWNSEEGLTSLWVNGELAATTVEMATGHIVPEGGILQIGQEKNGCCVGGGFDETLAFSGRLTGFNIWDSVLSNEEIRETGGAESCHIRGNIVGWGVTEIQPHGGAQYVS

Binder: B1
- Kd [1]: 7.2 nM
- koff [1]: 0.000457 s⁻¹
- kon [1]: 68000 M⁻¹ s⁻¹
- Kd [2]: 344 nM
- koff [2]: 0.00149 s⁻¹
- kon [2]: 4400 M⁻¹ s⁻¹

Binder: B2
- binding result [3]: binds

- Kd [4]: 304 nM
- koff [4]: 0.00067 s⁻¹
- kon [4]: 2220 M⁻¹ s⁻¹
- Kd [5]: 494 nM
- koff [5]: 0.00136 s⁻¹
- kon [5]: 2800 M⁻¹ s⁻¹
- Kd [6]: 444 nM
- koff [6]: 0.000552 s⁻¹
- kon [6]: 1320 M⁻¹ s⁻¹
B3: single-chain recombinant form of human C1q globular region (C1q-scGR) (domain or fragment)
chain: KDQPRPAFSAIRRNPPMGGNVVIFDTVITNQEEPYQNHSGRFVCTVPGYYYFTFQVLSQWEICLSIVSSSRGQVRRSLGFCDTTNKGLFQVVSGGMVLQLQQGDQVWVEKDPKKGHIYQGSEADSVFSGFLIFPSAGSGKQKFQSVFTVTRQTHQPPAPNSLIRFNAVLTNPQGDYDTSTGKFTCKVPGLYYFVYHASHTANLCVLLYRSGVKVVTFCGHTSKTNQVNSGGVLLRLQVGEEVWLAVNDYYDMVGIQGSDSVFSGFLLFPDGSAKATQKIAFSATRTINVPLRRDQTIRFDHVITNMNNNYEPRSGKFTCKVPGLYYFTYHASSRGNLCVNLMRGRERAQKVVTFCDYAYNTFQVTTGGMVLKLEQGENVFLQATDKNSLLGMEGANSIFSGFLLFPDMEA
modifications: N-glycan (biantennary, sialylated) at Asn 124 of C1qA
notes: globular domain of human complement C1q chain A (gC1qA), residues 88-223 of mature C1qA; numbers count on: the mature protein; Gly-Ser-Gly linker between gC1qA and gC1qC; Gly-Ser-Ala linker between gC1qC and gC1qB; globular domain of human complement C1q chain B (gC1qB), residues 90-226 of mature C1qB; An insect-cell version (C1qA 85-223, melittin signal peptide) was also made but was low-yield …

Binder: B4
- Kd [1]: 590 nM
- Kd [2]: 510 nM
- koff [2]: 0.00234 s⁻¹
- kon [2]: 4630 M⁻¹ s⁻¹

- binding result [3]: binds
- binding result [7]: binds
B5: gC1qC module of C1q-scGR (residues 87-217 of mature C1qC) (domain or fragment, human, UniProt P02747 115-245, looked up)
chain: KQKFQSVFTVTRQTHQPPAPNSLIRFNAVLTNPQGDYDTSTGKFTCKVPGLYYFVYHASHTANLCVLLYRSGVKVVTFCGHTSKTNQVNSGGVLLRLQVGEEVWLAVNDYYDMVGIQGSDSVFSGFLLFPD
notes: globular domain of human C1q chain C; numbers count on: the mature protein; In the crystal it is joined on one chain between gC1qA and gC1qB: see m1; also called subunit C; source: 293-F cells, as part of the single chain C1q-scGR, purified
